# Test results published in patent publication US20250313612A1 (Adimab, published 2025).
# Residue numbers refer to the chain shown, from its start.
# B1: ADI-14447 (antibody, V domains shown)
# VH: QVQLVQSGAEMKKPGSSVTVSCKASGVPFTSYTYSWVRQAPGQGLEWMGRVLPVIGSAKYPQKFQGTVTITADKSTSTIYLQLSSLRPEDTAIYFCAGSLLAGYDREFDSWGQGTLVTVSS
# VL: DIQMTQSPSSLSASVGDRITITCRASQGISNWLAWYQQKPGKAPKSLIYEASTLQSGVSSRFSGSGSGTHFTLTIASLQPEDFATYYCQQYYIYPLTFGGGTKLEIK
# notes: full-length IgG (yeast-expressed); also called Antibody Number 10; Ab# 10
# B2: ADI-14439 (antibody, V domains shown)
# VH: QVQLVQSGAEVKKPGSSVRVSCRASGVTLTTVAVNWVRQVPGQGPEWIGGILVGLGKVRLAQKFENRATLRADTSSNTAYMELSGLRFEDTAVYYCAIIDPQDCTAASCFWVNWLDPWGQGTLVTVSS
# VL: EIVLTQSPGTLTLSPGETATLSCRASQSVLSGYLAWYQQKPGQAPRLLIYAASTRATDIPARFTGSGSATDFTLTISRLEPQDFAVYYCQQYGSAPITFGQGTRLEIK
# notes: full-length IgG (yeast-expressed); also called Antibody Number 2; Ab# 2
# B3: ADI-14507 (antibody, V domains shown)
# VH: QITLKESGPTLVKPTQTLTLTCTLSGFSLSTPRMGVGWIRQPPGKALEWLALIDWDDDRRYSPSLKTRLTITKDTSKNQVVLRMTDMDPVDTGTYYCVHSDVYTTGGYYLYYFDYWGQGTLVTVSS
# VL: DIQVTQSPSSLSASVGDRVTITCRASQTIPSYLNWYQHKPGKAPQLLIYAASNLRSGVPPRFRGSGSGTDFTLTVSSLQPEDFATYFCQQSYSSPYTFGQGTKLEIK
# notes: full-length IgG (yeast-expressed); also called Antibody Number 68; Ab# 68
# B4: ADI-14449 (antibody, V domains shown)
# VH: EVQLVESGGDLVKPGGSLRLSCEGSGFIFPNAWMSWVRQAPGKGLEWVGRIKSNTDGGTTDYGAPVKGRFTISRDDSTNTMYLHMNSLKTEDTAVYFCSTGPPYKYFDETGYSVVDYWGQGTLVTVSS
# VL: SYELTQPPSASGTPGQRVIISCSGSTSNSGYNYFYWYQQRPGTAPKLLIYGSDQRPSGVPDRFSGSQSGPSASLAISGLRSEDEAHYYCAAWDDNLSGPVFGGGTKLTVL
# notes: full-length IgG (yeast-expressed); also called Antibody Number 12; Ab# 12
# B5: ADI-14510 (antibody, V domains shown)
# VH: QVQLQQWGAEVKKPGSSVKVSCKASGVALSSVAISWVRQAPGQGLEWMGGILPGFDKVRFAQEFENRATLTADTARDIAYMELSGLRSDDTAVYYCAIIDPQDCTSASCFWVNWLDPWGQGTLVTVSS
# VL: ETTLTQSPGTLTVSPGERATLSCRASQSIIRNNLAWYQQKPGQAPRLLIYAASNRATDIPDRFSGSGSGTDFTLTISRLEAQDFAVYFCQQYGTSPITFGQGTKVEIK
# notes: full-length IgG (yeast-expressed); also called Antibody Number 71; Ab# 71
# B6: ADI-14511 (antibody, V domains shown)
# VH: EVQLLESGAEVKKPGSSVKVSCKVAGGTFSDYAISWVRQAPGQGLEYLGGIIPAFKRAMYPRKFQDRVTITADESTSTAYMELRGLRSEDTALYYCARPAGDFGDLKWLRSPFDYWGQGTLVTVSS
# VL: DIVLTQSPATLSVSPGERATLSCRASEGVGINLAWYQQKPGQAPRLLIYGASTRATDIPARFSGSGSGTDFTLTISSLQSEDFAVYYCQQYNDWPPQLTFGPGTKVDIK
# notes: full-length IgG (yeast-expressed); also called Antibody Number 72; Ab# 72
# B7: ADI-14512 (antibody, V domains shown)
# VH: EVQLVESGAEVKKPGSSVKVSCKVVGGSFSNYGISWVRQAPGQGPEWMGGIIPAFKTAKYAKKFEDRVTITADESTSTAYMEVSGLRSDDTALYYCARPERDFGHLKWLRSPFDYWGQGTLVTVSS
# VL: B6 VL with D1E, I2T, V3T, A19V, E27Q, G30S, D107E
# notes: full-length IgG (yeast-expressed); also called Antibody Number 73; Ab# 73
# B8: ADI-14450 (antibody, V domains shown)
# VH: QVQLVQSGGGLVKPGGSRRLACAASGFIFRNAWMSWVRQAPGKGLEWVGRIKRTSEGGSVDYATPVQGRFSISRDDSRNTLYLQMHSLAPDDTAVYYCSTGPPYSYFDSTGYSVVDYWGQGTLVTVSS
# VL: QSVLTQPPSASGTPGQRVTISCSASSSNIGDNYFYWYQQLPGKAPTLLMYGSDQRSSGVPDRFSGSQSGTSASLAISGLRSEDEAAYYCAAWDDSLSGPVFGGGTQLTVL
# notes: full-length IgG (yeast-expressed); also called Antibody Number 13; Ab# 13
# B9: ADI-14523 (antibody, V domains shown)
# VH: B8 VH with Q1E, Q6E, R18L, A21S, H86N, A89E, P90T, T110S
# VL: B8 VL with A86D, Q106K
# notes: full-length IgG (yeast-expressed); also called Antibody Number 83; Ab# 83
# B10: ADI-14513 (antibody, V domains shown)
# VH: QVQLVQSGSEVKRPGSSVKVSCKASGVALTTVAVNWVRQVPGQGPEWIGGILIGFGKVRQAQKFENRVTFTADASRNTAYMELSGLRSEDTAVYYCAIIDPQDCTRASCFWVNWLAPWGHGTLVTVSS
# VL: DIRVTQSPGTLTLSPGERASLSCRASESILNGNLAWYQQKPGQAPRLLIYAASSRATDIPDRFSGSGSGTDFTLTISRLEPQDFAVYYCQQYGSAPITFGQGTRLEIK
# notes: full-length IgG (yeast-expressed); also called Antibody Number 74; Ab# 74
# B11: ADI-14445 (antibody, V domains shown)
# VH: EVQLLESGAVMKRPGSSVRVSCRASGVTLTTVSVNWVRQVPGQGPEWIGGILIGFGKVRQAQKFENRVTLTADASRNTAYMELSGLTSDDTAVYYCAIIDPQDCTRASCFWVNWLDPWGQGTLVTVSS
# VL: B10 VL with V4M, S20T, E27Q, N31S, Y50S, S54T, S77T, G93D
# notes: full-length IgG (yeast-expressed); also called Antibody Number 8; Ab# 8
# B12: ADI-14524 (antibody, V domains shown)
# VH: EVQLVESGGGLVQPGGSLRLSCAASGFSFSDYSMNWVRQAPGKGLEWVSYITPSSRNKFYADSVRGRFTISRDNAENSLYLQMNSLRVEDTAVYYCVRSLHWGAAIERWDVWGQGTTVTVSS
# VL: EIVLTQSPGTLSLSPGERATLSCRASQSISSSFFAWYQQTPGQAPRLLMYATSSRATGIPDRFSGSGSGTDFTLTISRVEPEDFAVYYCQQSGSSPYTFGQGTKVEIK
# notes: full-length IgG (yeast-expressed); also called Antibody Number 84; Ab# 84
# B13: ADI-14446 (antibody, V domains shown)
# VH: QVQLVQSGAEVKKPGSSVKVSCEASGDTFTSYAVIWVRQTPGQGLEFMGSIIPIFQTINYAPKFQGRVTLSADGSTSTVFMELRNLRSEDTAIYFCATKRYCTSPSCHGLWYFNLWGRGTMVTVSS
# VL: ETTLTQSPISLSVTPGEPASISCRSSKSLLDSDDGNTYLDWYLQKPGQSPQILIYMLSYRASGVPDRFSGSGSGTDFTLKISRVEAEDVGVYYCMQRIEYPYTFGQGTKVEIK
# notes: full-length IgG (yeast-expressed); also called Antibody Number 9; Ab# 9
# B14: ADI-14452 (antibody, V domains shown)
# VH: B13 VH with T40A, F47W, S77R, F80Y, R84G, N85S, M121L
# VL: B13 VL with E1D, T2I, T3V, L4M, I9L, S12P, Y59H, I98V, T103S
# notes: full-length IgG (yeast-expressed); also called Antibody Number 15; Ab# 15
# Target: T1, RSV F ectodomain stabilized in the postfusion conformation (F ΔFP), subtype B (Respiratory syncytial virus subtype B, UniProt P13843 26-109; P13843 147-524)
# T1 construct: extracellular domain; trimer; also called Postfusion subtype B; postF subtype B
# Assay: BLI, IgG on AHQ sensor, 100 nM antigen
row,Binder,Kd [pM]
1,B1,271
2,B2,16200
3,B3,413
4,B4,462
5,B5,619
6,B6,1250
7,B7,587
8,B8,142
9,B9,131
10,B10,962
11,B11,15200
12,B12,771
13,B13,137
14,B14,139

# Target: T2, RSV F ectodomain stabilized in the postfusion conformation (F ΔFP), subtype A (Respiratory syncytial virus subtype A, UniProt P03420 26-109; P03420 147-524)
# T2 construct: extracellular domain; trimer; furin-cleaved; also called Postfusion subtype A
# Assay: BLI, IgG on AHQ sensor, 100 nM antigen
row,Binder,Kd [pM]
1,B1,339
2,B2,5160
3,B3,266
4,B4,204
5,B5,783
6,B6,988
7,B7,2670
8,B8,227
9,B9,192
10,B10,1210
11,B11,4920
12,B12,826
13,B13,213
14,B14,217

# Target: RSV F protein of recombinant mKate-RSV, subtype B (18537) (Respiratory syncytial virus subtype B …, UniProt P13843 26-574)
# Assay: cell-based or functional assay
row,Binder,Neut IC50 subtype B [µg/mL]
1,B1,0.372
2,B2,4.12
3,B3,0.173
4,B4,0.182
5,B5,> 10
6,B6,7.04
7,B7,> 10
8,B8,0.315
9,B9,0.151
10,B10,2.2
11,B11,1.21
12,B12,6
13,B13,0.187
14,B14,0.157

# Target: RSV F protein of recombinant mKate-RSV, subtype A (strain A2) (Respiratory syncytial virus subtype A …, UniProt P03420 26-574)
# Assay: cell-based or functional assay
row,Binder,Neut IC50 subtype A [µg/mL]
1,B1,0.143
2,B2,> 10
3,B3,0.319
4,B4,0.193
5,B5,> 10
6,B6,> 10
7,B7,> 10
8,B8,0.195
9,B9,0.239
10,B10,4.81
11,B11,> 10
12,B12,6.05
13,B13,0.091
14,B14,0.076
